{"source": "paper PMC11443169", "about": "(Life Science Alliance, 2024)", "key": {"[1]": {"assay": "Recovery of Aβ variants for elution from reversed-phase HPLC under different conditions", "assay_type": "physicochemical", "excerpt": "Senile plaques, which are one of the key pathological features of Alzheimer’s disease (AD), are composed of amyloid β peptides (Aβs) with a variety of secondary and tertiary structures because of post-translational modifications ([Saido et al, 1995], [1996]). This heterogeneity appears to affect catabolism and aggregation rates, resulting in structural changes in plaques. […] In contrast, transgenic (Tg) mice overexpressing human APP with pathogenic mutations primarily accumulate Aβ1-40 and Aβ1-42 ([Sturchler-Pierrat et al, 1997]; [Kawarabayashi et al, 2001]). […] There is, however, some discrepancy among different reports regarding the quantity of Aβ variants, which vary depending on the methods employed. […] However, the use of a heated (50°C) basic solvent containing betaine and limited proteolysis using lysyl endopeptidase allows full recovery in HPLC and detection by mass spectrometry, respectively.\nSupplementary file : Table S1. Recovery of various Aβ variants for elution from reversed-phase HPLC under different conditions. TFA, trifluoroacetic acid; TEA, triethylamine."}, "[2]": {"test_system": "rat hippocampus", "experimental": "(A, B, C, D, E, F) Variants of ^3H/^14C-Aβx-42 were subjected to in vivo degradation and subsequent analysis as previously described ([Iwata et al, 2000]). Briefly, 0.5 μg Aβx-42 peptide dissolved in phosphate-buffered saline was unilaterally injected into the CA1 sector of the rat hippocampus and subjected to catabolism until the animals were euthanized by decapitation at the indicated time points. There was no contamination of the injection area by plasma or cerebrospinal fluid as immunohistochemically confirmed using anti-rat IgG. After extraction, the products were analyzed by reversed-phase HPLC connected to a flow scintillation monitor. The HPLC profiles in a ^14C mode at time 0 (red), 10 (blue), and 30/60 (black) minutes after the in vivo injection are shown. […] The major peaks at time 0 indicated by the arrows correspond to the intact substrates.\nDigitized data of remaining amounts of intact Aβx-42 shown in Fig 1 were plotted, and then exponential approximation curves were drawn using Microsoft Excel. Each analysis of the in vivo catabolic rate of the Aβx-42 variant was carried out by independent experiments with more than five time points.\nMale, 8–10-wk-old, Sprague Dawley rats used for in vivo analysis of metabolic rates of radiolabeled Aβx-42 peptides were obtained from Japan SLC. […] They were housed in plastic cages. […]"}}, "note": "Ends that are not written are not given here.", "data": [{"substance": "Aβ1-40: amyloid β peptide 1-40", "values": [{"measurement": "Recovery for elution from reversed phase HPLC", "setting": "[1]; solvent TEA/betaine (basic), temperature 50℃", "value": 100, "unit": "%"}, {"measurement": "Recovery for elution from reversed phase HPLC", "setting": "[1]; solvent TFA, temperature 20℃", "value": 100, "unit": "%"}, {"measurement": "Recovery for elution from reversed phase HPLC", "setting": "[1]; solvent TFA, temperature 50℃", "value": 100, "unit": "%"}]}, {"substance": "Aβ17L-42: Aβ17L-42 (p3 fragment), internally radiolabeled (LVFFAEDVGSNKGAIIGLMVGGVVIA; also: internally radiolabeled, site not given here; UniProt P05067 688-713, looked up, fragment)", "values": [{"measurement": "Half-life (in vivo half-lives of Aβx-42)", "setting": "[2]", "value": 34.69, "unit": "min"}]}]}
